For one molecule, Kd results are on record in paper PMC9704045, “Qualification of a Biolayer Interferometry Assay to Support AZD7442 Resistance Monitoring” (Microbiology Spectrum, 2022).

The target of the assay is T1, wild-type HexaPro (D614) SARS-CoV-2 spike trimer (SARS-CoV-2, wild type (D614), stabilised).
T1 construct: also called wild-type trimer
Description: BLI; Octet Red384; […]; analyte ([…]; HBS-EP+ buffer; 1:1 binding model. Conditions: one partner purified. For orientation: BLI is a label-free optical method that tracks binding on a fibre tip over time.

B1: tixagevimab (AZD8895), full-length IgG (antibody, V domains shown)
VH: QMQLVQSGPEVKKPGTSVKVSCKASGFTFMSSAVQWVRQARGQRLEWIGWIVIGSGNTNYAQKFQERVTITRDMSTSTAYMELSSLRSEDTAVYYCAAPYCSSISCNDGFDIWGQGTMVTVSS
VL: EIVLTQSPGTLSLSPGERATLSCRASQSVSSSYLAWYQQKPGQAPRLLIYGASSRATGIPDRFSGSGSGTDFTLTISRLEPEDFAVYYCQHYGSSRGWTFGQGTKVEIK
notes: also called component of AZD7442 (Evusheld); copies: 2 + 2
One may read the Kd as the equilibrium constant for the complex coming apart. In turn, B1 had a dissociation constant Kd of 491 pM.
